Reference: the MegaScale stability set (Tsuboyama et al. 2023)

B1: 2M8U (parent)
chain: TKAQVIEAFKVFDRDGNGYVTVDYLRKVLNELGDMMPADEIEEMIYEADPQNSGYVQYETFVGMLFL

Variants of: B1
Assay: folding stability dG (cDNA display proteolysis); higher = more stable
Conditions: PBS, room temperature

Folding stability dG [kcal/mol] of substitutions, site by site:
G16: V 2.42, C 2.92, E 2.93, K 3.04, A 2.96, T 2.43, R 2.65, Y 2.49, W 2.29, N 3.36, P 2.11, S 3.03, I 2.21, D 3.28, Q 3.25, H 2.95, F 2.75, L 2.97, M 3.04
L29: F 3.2, N 1.86, G 1.58, R 1.52, D 0.756, Y 2.22, C 3.16, H 1.67, E 1.12, A 2.57, T 2.46, S 2.06, M 3.58, Q 1.4, I 3.53, W 2.91, V 3.28, P 1.19, K 1.33
V22: H 3.5, I 3.48, Q 2.95, S 3.02, K 3.3, E 2.47, R 3.59, C 2.88, G 2.36, L 3.49, D 1.76, Y 3.44, P 2.22, A 2.95, W 3.11, M 3, T 3.19, N 2.76, F 2.52
Y19: L 3.26, D 2.21, A 2.7, R 2.76, S 2.9, T 3.29, P 1.9, F 3.66, H 2.94, V 3.05, E 2.63, W 3.21, C 2.74, G 1.95, M 3.3, I 3.21, N 2.75, Q 2.91, K 3.07
N17: E 3.08, T 3.95, L 3.39, V 3.27, S 4.02, I 3.1, M 3.15, Y 3, P 1.86, G 2.96, R 3.04, W 2.95, A 3.12, K 3.01, D 3.44, H 3.03, F 3.06, Q 3.12, C 2.99
T21: E 3.65, S 3.64, W 3.22, H 4.14, F 3.29, I 2.89, A 3.65, C 3.42, M 3.4, Q 3.7, P 3.46, Y 3.38, V 3.05, K 3.47, L 3.55, R 3.74, N 3.24, G 3.51, D 3.16
N30: D 3.72, A 3.62, C 3.37, L 3.64, H 3.52, F 3.65, E 3.4, I 3.36, K 3.59, G 3.6
F12: Y 3.71
L25: V 3.01, W 2.53, F 2.91, G 1.92, E 2.09, I 3.14, S 1.72, N 1.47, A 3.2, R 2.26, T 2.65, K 2.23, D 1.27, Y 1.83, Q 2.02, H 1.16, M 2.69, C 2.88, P 1.25
R14: N 3.34, L 3.75, V 3.83, Q 3.49, P 3.5, W 3.32, C 3.42, A 3.65, F 4.03, K 3.55, E 3.62, M 3.69, Y 3.69, S 3.58, T 3.81, D 3.5, H 3.68, I 3.77, G 3.35
V20: R 2.18, K 1.46, D 2.73, H 1.98, L 2.9, T 3.33, F 2.47, S 2.45, Y 1.85, N 2.76, M 2.59, C 3.04, Q 2.15, E 2.16, P 2.1, A 2.73, I 3.62, W 2.96, G 1.83
Y24: M 4.04, G 3.47, I 4.54, K 3.82, E 4.23, P 1.24, R 3.94, N 4.5, W 3.24, H 4.05, C 4.02, S 4.27, D 4.63, V 4.38, A 4.19, T 4.42, F 3.51, L 4, Q 4.33
D15: A 3.13, K 2.32, R 1.81, L 3.17, H 2.69, F 2.79, G 2.75, Q 3.02, W 2.76, T 2.97, E 3.55, P 2.51, S 2.84, M 3.03, V 2.94, N 2.97, Y 2.96, C 2.9, I 3.02
G18: D 2.28, H 2.17, M 2.62, R 2.06, P 2.71, K 2.53, I 2.57, N 2.23, Q 2.3, L 2.92, A 2.63, C 2.87, W 2.68, V 2.61, T 2.38, E 2.38, Y 2.36, S 2.42, F 2.65
D23: T 3.65, L 3.63, R 3.33, F 4.04, S 3.55, M 3.5, W 3.66, K 3.64, G 3.56, N 3.45, V 3.54, Q 3.65, Y 4.04, I 3.63, P 3.44, A 3.58, H 3.84, C 3.67, E 3.74
D13: T 2.06, Y 2.29, E 2.11, Q 1.87, S 1.57, I 2.4, C 3.16, M 2.39, W 2.7, F 2.65, V 2.3, G 1.79, R 1.21, L 2.6, N 1.76, A 1.97, H 1.95, K 1.39, P 1.49
V28: L 2.71, H 2.17, W 2.77, T 2.76, D 0.754, I 3.32, C 2.6, E 1.63, A 2.63, Y 2.78, P 1.37, S 2.18, N 1.84, K 2.47, R 2.41, Q 2.25, F 2.86, M 2.65, G 2.32
R26: C 2.88, H 3.19, L 3.38, G 1.92, W 3.63, N 2.59, M 3.44, P 1.55, E 2.14, V 3.11, S 2.42, A 2.49, I 3.22, F 3.31, Q 2.72, Y 3.53, D 1.78, K 3.37, T 2.57
K27: M 3.55, L 3.72, T 3.26, Y 3.43, D 2.89, N 3.12, P 2.04, Q 3.53, F 3.58, C 3.05, A 3.38, W 3.42, R 3.48, G 2.92, V 3.62, E 3.28, H 3.44, I 3.66, S 3.2
